From patent US20030009023A1 (US Dept. of Health and Human Services, published 2003)

B1: Frzb deletion construct delta CRD (other)
chain: AACEPVVCISPEAIVTADGADFPMDSSNGNCRGASSERCKCKPVRATQKTYFRNNYNYVIRAKVKEIKTKCHDVTAVVEVKEILKASLVNIPRETVNLYTSSGCLCPPLNVNEEYLIMGYEDEERSRLLLVEGSIAEKWKDRLGKKVKRWDMKLRHLGLNTSDSSHSDSTQSQKPGRNSNSRQARN
notes: Made by deleting amino acids 39 to 145 of Frzb; also called CRD deletion; removal of the entire frizzled domain
B2: bovine Frzb (other)
chain: AACEPVRIPLCKSLPWNMTKMPNHLHHSTQANAILAIEQFEGLLGTHCSPDLLFFLCAMYAPICTIDFQHEPIKPCKSVCERARQGCEPILIKYRHSWPESLACEELPVYDRGVCISPEAIVTADGADFPMDSSNGNCRGASSERCKCKPVRATQKTYFRNNYNYVIRAKVKEIKTKCHDVTAVVEVKEILKASLVNIPRETVNLYTSSGCLCPPLNVNEEYLIMGYEDEERSRLLLVEGSIAEKWKDRLGKKVKRWDMKLRHLGLNTSDSSHSDSTQSQKPGRNSNSRQARN
notes: Full-length bovine Frzb expressed from pcDNA3 (pFrzb) in COS7 cells, or translated in vitro with microsomal membranes, or from injected mRNA; also called Bfrzb; BFrzb
B3: β-lactamase (enzyme)
chain: HPETLVKVKDAEDQLGARVGYIELDLNSGKILESFRPEERFPMMSTFKVLLCGAVLSRVDAGQEQLGRRIHYSQNDLVEYSPVTEKHLTDGMTVRELCSAAITMSDNTAANLLLTTIGGPKELTAFLHNMGDHVTRLDRWEPELNEAIPNDERDTTMPAAMATTLRKLLTGELLTLASRQQLIDWMEADKVAGPLLRSALPAGWFIADKSGAGERGSRGIIAALGPDGKPSRIVVIYTTGSQATMDERNRQIAEIGASLIKHW
notes: also called β-lactamase control

Assays:
[1] = biological target: Xwnt-8 (Xenopus) (UniProt P28026); assay: cell-based or functional assay
[2] = biological target: T1, HA-tagged murine Wnt-1 (mouse, UniProt P04426 28-370); assay: co-immunoprecipitation from lysates of co-transfected COS7 cells
T1 construct: also called pLNCWnt1HA; pLNCW1-HA; not shown: hemagglutinin (HA) tag near the C-terminus
T1 sequence (looked up): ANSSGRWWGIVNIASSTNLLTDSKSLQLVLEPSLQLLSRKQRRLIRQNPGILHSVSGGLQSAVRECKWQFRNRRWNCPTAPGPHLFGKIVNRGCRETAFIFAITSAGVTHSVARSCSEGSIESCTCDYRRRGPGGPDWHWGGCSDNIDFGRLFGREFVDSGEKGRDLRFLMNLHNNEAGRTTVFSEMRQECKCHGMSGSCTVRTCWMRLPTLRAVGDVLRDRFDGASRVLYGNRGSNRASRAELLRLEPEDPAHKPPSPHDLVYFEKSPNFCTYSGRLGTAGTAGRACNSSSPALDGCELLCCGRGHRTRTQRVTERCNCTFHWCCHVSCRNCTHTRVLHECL

[3] = biological target: T2, HA-tagged mouse Wnt-3A (mouse, UniProt P27467 19-352, limits assumed); assay: anti-HA immunoprecipitation of co-transfected COS7 lysates, immunoblot with N374-PEP
T2 construct: also called pLNCW3A-HA; not shown: HA tag

[4] = biological target: T1, HA-tagged murine Wnt-1; assay: as above
[5] = biological target: T3, HA-tagged mouse Wnt-4 (mouse, UniProt P22724 23-351, limits assumed); assay: as above
T3 construct: also called pLNCW4-HA; not shown: HA tag
T3 sequence (looked up): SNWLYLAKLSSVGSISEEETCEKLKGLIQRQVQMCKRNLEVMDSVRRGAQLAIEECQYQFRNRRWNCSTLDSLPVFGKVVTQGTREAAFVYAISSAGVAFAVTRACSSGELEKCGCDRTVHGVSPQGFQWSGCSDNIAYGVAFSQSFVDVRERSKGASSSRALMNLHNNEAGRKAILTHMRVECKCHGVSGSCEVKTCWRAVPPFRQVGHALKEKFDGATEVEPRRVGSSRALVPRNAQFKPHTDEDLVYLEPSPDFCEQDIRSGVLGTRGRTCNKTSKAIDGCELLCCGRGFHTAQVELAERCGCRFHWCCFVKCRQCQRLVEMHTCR

[6] = biological target: T4, HA-tagged mouse Wnt-7B (mouse, UniProt P28047 25-349, limits assumed); assay: as above
T4 construct: also called pLNCW7B-HA; not shown: HA tag
T4 sequence (looked up): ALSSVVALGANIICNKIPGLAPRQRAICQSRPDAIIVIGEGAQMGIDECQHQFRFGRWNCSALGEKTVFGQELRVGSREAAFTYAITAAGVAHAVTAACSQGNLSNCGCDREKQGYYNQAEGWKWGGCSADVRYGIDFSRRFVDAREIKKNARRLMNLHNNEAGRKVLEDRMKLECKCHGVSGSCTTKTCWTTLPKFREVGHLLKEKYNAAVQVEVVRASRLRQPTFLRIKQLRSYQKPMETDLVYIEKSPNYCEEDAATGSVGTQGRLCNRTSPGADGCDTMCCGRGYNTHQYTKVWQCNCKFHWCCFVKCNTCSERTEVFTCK

[7] = biological target: T5, HA-tagged mouse Wnt-5B (mouse, UniProt P22726 18-359, limits assumed); assay: as above
T5 construct: also called pLNCW5B-HA; not shown: HA tag
T5 sequence (looked up): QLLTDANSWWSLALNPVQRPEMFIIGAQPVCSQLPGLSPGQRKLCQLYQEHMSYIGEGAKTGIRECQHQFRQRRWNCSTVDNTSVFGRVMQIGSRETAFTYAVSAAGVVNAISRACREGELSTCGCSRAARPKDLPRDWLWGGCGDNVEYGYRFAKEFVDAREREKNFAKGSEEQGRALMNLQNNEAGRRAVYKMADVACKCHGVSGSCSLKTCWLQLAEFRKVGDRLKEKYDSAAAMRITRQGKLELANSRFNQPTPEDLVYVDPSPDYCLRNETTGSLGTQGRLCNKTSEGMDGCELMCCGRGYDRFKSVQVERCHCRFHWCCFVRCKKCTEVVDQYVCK

[8] = biological target: T6, HA-tagged mouse Wnt-6 (mouse, UniProt P22727 24-364, limits assumed); assay: as above
T6 construct: also called pLNCW6-HA; not shown: HA tag
T6 sequence (looked up): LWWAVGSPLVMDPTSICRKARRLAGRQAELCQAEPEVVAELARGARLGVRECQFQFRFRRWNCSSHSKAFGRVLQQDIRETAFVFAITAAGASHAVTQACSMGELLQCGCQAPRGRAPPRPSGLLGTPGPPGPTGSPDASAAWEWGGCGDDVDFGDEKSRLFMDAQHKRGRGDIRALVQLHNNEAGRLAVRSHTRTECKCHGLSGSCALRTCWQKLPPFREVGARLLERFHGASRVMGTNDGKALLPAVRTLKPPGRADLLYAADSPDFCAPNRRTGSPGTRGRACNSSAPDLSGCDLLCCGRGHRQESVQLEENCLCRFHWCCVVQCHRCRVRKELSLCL

[9] = biological target: T7, HA-tagged mouse Wnt-2 (mouse, UniProt P21552 26-360, limits assumed); assay: as above
T7 construct: also called pLNCW2-HA; not shown: HA tag
T7 sequence (looked up): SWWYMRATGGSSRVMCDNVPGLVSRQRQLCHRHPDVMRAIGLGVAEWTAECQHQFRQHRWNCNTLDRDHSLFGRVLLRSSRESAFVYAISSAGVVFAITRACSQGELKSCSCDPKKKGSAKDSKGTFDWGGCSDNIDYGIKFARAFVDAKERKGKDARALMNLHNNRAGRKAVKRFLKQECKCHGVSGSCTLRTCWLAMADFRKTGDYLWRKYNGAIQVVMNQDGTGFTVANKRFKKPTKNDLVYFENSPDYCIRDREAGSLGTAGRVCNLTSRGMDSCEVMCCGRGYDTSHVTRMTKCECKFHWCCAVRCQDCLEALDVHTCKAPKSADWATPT

[10] = biological target: T8, HA-tagged mouse Wnt-7A (mouse, UniProt P24383 32-349, limits assumed); assay: as above
T8 construct: also called pLNCW7A-HA; not shown: HA tag
T8 sequence (looked up): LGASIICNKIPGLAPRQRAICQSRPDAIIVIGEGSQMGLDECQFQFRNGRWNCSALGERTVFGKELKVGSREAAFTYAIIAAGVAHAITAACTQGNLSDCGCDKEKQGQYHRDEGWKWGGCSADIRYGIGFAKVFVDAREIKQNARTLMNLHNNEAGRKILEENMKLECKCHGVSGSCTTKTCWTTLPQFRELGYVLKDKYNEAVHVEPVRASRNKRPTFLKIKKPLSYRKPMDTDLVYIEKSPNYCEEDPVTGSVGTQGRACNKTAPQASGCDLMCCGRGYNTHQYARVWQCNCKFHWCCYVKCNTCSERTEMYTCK

[11] = biological target: B2; assay: co-immunoprecipitation after in vitro cotranslation
[12] = biological target: T9, Xwnt-8^myc (Xenopus, UniProt P28026 23-358, limits assumed); assay: as above
T9 construct: also called myc-tagged XWnt-8
T9 sequence (looked up): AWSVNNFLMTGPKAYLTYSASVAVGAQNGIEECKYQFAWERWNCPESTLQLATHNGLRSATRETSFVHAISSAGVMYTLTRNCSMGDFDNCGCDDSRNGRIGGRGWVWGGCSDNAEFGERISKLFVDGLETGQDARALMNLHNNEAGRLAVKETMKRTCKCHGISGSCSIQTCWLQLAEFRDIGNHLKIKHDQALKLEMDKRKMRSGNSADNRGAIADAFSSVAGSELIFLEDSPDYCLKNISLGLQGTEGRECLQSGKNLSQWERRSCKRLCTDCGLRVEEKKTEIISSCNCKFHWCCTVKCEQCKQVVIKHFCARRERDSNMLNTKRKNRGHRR

T2 sequence (P27467 19-352 limits assumed): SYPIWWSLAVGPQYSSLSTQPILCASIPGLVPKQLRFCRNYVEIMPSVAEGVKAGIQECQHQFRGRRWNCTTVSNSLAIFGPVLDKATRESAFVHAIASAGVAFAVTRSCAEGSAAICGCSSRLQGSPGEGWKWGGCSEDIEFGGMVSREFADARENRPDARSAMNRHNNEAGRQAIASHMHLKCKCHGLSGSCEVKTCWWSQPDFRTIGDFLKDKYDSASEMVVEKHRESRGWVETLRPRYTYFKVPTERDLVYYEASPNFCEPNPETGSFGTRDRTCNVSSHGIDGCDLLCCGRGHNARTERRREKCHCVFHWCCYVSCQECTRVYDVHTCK

Q: Which head defects produced by CSKA-Xwnt-8 plasmid in dorsal blastomeres (64/80 embryos without Xfrzb) (embryos with head defects out of 81) [1] does the source give for Xenopus Frzb here?
A: 0

Q: Does B1 bind [2]?
A: no binding

Q: Does B2 bind [3]?
A: binds

Q: Does B2 bind [4]?
A: binds

Q: Does B2 bind [5]?
A: binds

Q: Does B2 bind [6]?
A: binds

Q: Does B2 bind [7]?
A: binds

Q: Does B2 bind [8]?
A: binds

Q: Does B2 bind [9]?
A: binds

Q: Does B2 bind [10]?
A: binds

Q: Does B3 bind [11]?
A: no binding

Q: Does B3 bind [12]?
A: no binding
